Measurements from article PMC2768864.

Biological target: Ixodes ricinus contact phase inhibitor (Ir-CPI) (Ixodes ricinus) (UniProt Q9GP15)
Assay: SPR

Ka: 3.3e+08 M⁻¹
ka1 (two-state model, formation of AB): 900000 M⁻¹ s⁻¹
ka2 (two-state model, forward conformation change): 0.00582 s⁻¹
kd1 (two-state model, dissociation of AB): 0.00535 s⁻¹
kd2 (two-state model, backward conformation change): 0.00614 s⁻¹
Substance: plasmin (enzyme)
